Source: IntAct's records for PubMed 20847002

B1: Probable peptidoglycan glycosyltransferase FtsW (Escherichia coli (strain K12)), P0ABG4 (parent)
chain: MRLSLPRLKMPRLPGFSILVWISTALKGWVMGSREKDTDSLIMYDRTLLWLTFGLAAIGFIMVTSASMPIGQRLTNDPFFFAKRDGVYLILAFILAIITLRLPMEFWQRYSATMLLGSIILLMIVLVVGSSVKGASRWIDLGLLRIQPAELTKLSLFCYIANYLVRKGDEVRNNLRGFLKPMGVILVLAVLLLAQPDLGTVVVLFVTTLAMLFLAGAKLWQFIAIIGMGISAVVLLILAEPYRIRRVTAFWNPWEDPFGSGYQLTQSLMAFGRGELWGQGLGNSVQKLEYLPEAHTDFIFAIIGEELGYVGVVLALLMVFFVAFRAMSIGRKALEIDHRFSGFLACSIGIWFSFQALVNVGAAAGMLPTKGLTLPLISYGGSSLLIMSTAIMMLLRIDYETRLEKAQAFVRGSR
partner: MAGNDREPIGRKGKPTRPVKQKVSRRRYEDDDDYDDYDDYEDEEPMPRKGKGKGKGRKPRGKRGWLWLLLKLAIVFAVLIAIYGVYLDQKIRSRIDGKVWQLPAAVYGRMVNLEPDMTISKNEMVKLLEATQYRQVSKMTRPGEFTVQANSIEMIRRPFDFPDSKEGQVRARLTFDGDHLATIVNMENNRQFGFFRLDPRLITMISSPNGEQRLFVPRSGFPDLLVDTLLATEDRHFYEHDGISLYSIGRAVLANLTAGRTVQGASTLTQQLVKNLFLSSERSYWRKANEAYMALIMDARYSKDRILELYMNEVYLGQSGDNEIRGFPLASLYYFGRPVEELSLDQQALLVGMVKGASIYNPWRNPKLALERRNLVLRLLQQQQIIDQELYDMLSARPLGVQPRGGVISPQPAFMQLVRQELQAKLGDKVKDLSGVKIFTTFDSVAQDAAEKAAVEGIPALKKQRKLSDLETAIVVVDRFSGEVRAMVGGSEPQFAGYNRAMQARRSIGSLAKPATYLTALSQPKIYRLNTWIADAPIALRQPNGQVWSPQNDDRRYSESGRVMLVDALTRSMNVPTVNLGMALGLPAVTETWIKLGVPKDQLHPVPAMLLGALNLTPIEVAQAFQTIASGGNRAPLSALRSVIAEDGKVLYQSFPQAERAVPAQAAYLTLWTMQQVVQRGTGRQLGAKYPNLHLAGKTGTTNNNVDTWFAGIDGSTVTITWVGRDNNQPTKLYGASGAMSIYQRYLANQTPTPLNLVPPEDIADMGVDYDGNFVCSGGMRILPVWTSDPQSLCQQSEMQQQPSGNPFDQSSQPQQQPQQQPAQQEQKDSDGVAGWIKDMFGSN
B2: Probable peptidoglycan glycosyltransferase FtsW (Escherichia coli (strain K12)), P0ABG4 (parent)
chain: B1 chain
partner: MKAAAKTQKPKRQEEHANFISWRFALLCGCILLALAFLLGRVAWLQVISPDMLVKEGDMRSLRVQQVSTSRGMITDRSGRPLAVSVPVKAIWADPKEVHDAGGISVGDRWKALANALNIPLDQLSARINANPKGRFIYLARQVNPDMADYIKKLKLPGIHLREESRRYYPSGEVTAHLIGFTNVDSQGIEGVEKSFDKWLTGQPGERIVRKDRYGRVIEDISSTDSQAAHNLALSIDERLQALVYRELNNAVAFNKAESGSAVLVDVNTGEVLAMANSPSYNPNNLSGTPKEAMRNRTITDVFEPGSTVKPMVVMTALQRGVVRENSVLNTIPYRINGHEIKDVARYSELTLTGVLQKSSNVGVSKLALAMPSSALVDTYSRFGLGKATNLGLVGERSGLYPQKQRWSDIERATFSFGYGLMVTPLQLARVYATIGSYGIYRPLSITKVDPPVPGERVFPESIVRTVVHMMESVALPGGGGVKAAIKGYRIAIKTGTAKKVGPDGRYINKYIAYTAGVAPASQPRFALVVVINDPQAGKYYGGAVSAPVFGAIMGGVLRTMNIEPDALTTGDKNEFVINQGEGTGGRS
B3: Peptidoglycan D,D-transpeptidase FtsI (Escherichia coli (strain K12)), P0AD68 (parent)
chain: B2 partner
partner: B1 chain

Variants of: B1
Conditions: with pbpb_ecoli mrcB
With MRLSLPRLKMPRLPGFSILVWISTALKGWVMGSREKDTDSLIMYDRTLLWLTFGLAAIGFIMVTSASMPIGQRLTNDPFFFAKRDGVYLILAFILAIITLRLPMEFWQRYSATMLLGSIILLMIVLVVGSSVKGASRWIDLGLLRIQPAELTKLSLFCYIANYLVRKGDEVRNNLRGFLKPMGVILVLAVLLLAQPDLGTVVVLFVTTLAMLFLAGAKLWQFIAIIGMGISAVVLLILAEPYRIRRVTAFWNPWEDPFGSGYQLTQSLMAFGRGELWGQGLGNSVQKLEYLPEAHTDFIFAIIGEELGYVGVVLALLMVFFVAFRAMSIGRKALEIDHRFSGFLACSIGIWFSFQALVNVGAAAGMLATKGLTLPLISYGGSSLLIMSTAIMMLLRIDYETRLEKAQAFVRGSR [P368A] the “effect of a mutation on the interaction” value was “decreasing interaction”.
MRLSLPRLKMPRLPGFSILVWISTALKGWVMGSREKDTDSLIMYDRTLLWLTFGLAAIGFIMVTSASMPIGQRLTNDPFFFAKRDGVYLILAFILAIITLRLPMEFWQRYSATMLLGSIILLMIVLVVGSSVKGASRWIDLGLLRIQPAELTKLSLFCYIANYLVRKGDEVRNNLRGFLKPMGVILVLAVLLLAQPDLGTVVVLFVTTLAMLFLAGAKLWQFIAIIGMGISAVVLLILAEPYRIRRVTAFWNPWEDPFGSGYQLTQSLMAFGRGELWGQGLGNSVQKLEYLPEAHTDFIFAIIGEELGYVGVVLALLMVFFVAFRAMSIGRKALEIDHRFSGFLACSIGIWFSFQALVNVGAAAGMLPTKGLTLALISYGGSSLLIMSTAIMMLLRIDYETRLEKAQAFVRGSR [P375A] was tested, and the “effect of a mutation on the interaction” value was “decreasing interaction”.

Variants of: B2
Conditions: with ftsi_ecoli ftsI
For MRLSLPRLKMPRLPGFSILVWISTALKGWVMGSREKDTDSLIMYDRTLLWLTFGLAAIGFIMVTSASMPIGQRLTNDPFFFAKRDGVYLILAFILAIITLRLPMEFWQRYSATMLLGSIILLMIVLVVGSSVKGASRWIDLGLLRIQPAELTKLSLFCYIANYLVRKGDEVRNNLRGFLKPMGVILVLAVLLLAQPDLGTVVVLFVTTLAMLFLAGAKLWQFIAIIGMGISAVVLLILAEPYRIRRVTAFWNPWEDPFGSGYQLTQSLMAFGRGELWGQGLGNSVQKLEYLPEAHTDFIFAIIGEELGYVGVVLALLMVFFVAFRAMSIGRKALEIDHRFSGFLACSIGIWFSFQALVNVGAAAGMLATKGLTLPLISYGGSSLLIMSTAIMMLLRIDYETRLEKAQAFVRGSR [P368A], the “effect of a mutation on the interaction” value was “decreasing interaction”.
For MRLSLPRLKMPRLPGFSILVWISTALKGWVMGSREKDTDSLIMYDRTLLWLTFGLAAIGFIMVTSASMPIGQRLTNDPFFFAKRDGVYLILAFILAIITLRLPMEFWQRYSATMLLGSIILLMIVLVVGSSVKGASRWIDLGLLRIQPAELTKLSLFCYIANYLVRKGDEVRNNLRGFLKPMGVILVLAVLLLAQPDLGTVVVLFVTTLAMLFLAGAKLWQFIAIIGMGISAVVLLILAEPYRIRRVTAFWNPWEDPFGSGYQLTQSLMAFGRGELWGQGLGNSVQKLEYLPEAHTDFIFAIIGEELGYVGVVLALLMVFFVAFRAMSIGRKALEIDHRFSGFLACSIGIWFSFQALVNVGAAAGMLPTKGLTLALISYGGSSLLIMSTAIMMLLRIDYETRLEKAQAFVRGSR [P375A], the “effect of a mutation on the interaction” value was “decreasing interaction”.

Variants of: B3
Conditions: with ftsw_ecoli ftsW
In the case of MKAAAKTQKPKRQEEHANFISWCFALLCGCILLALAFLLGRVAWLQVISPDMLVKEGDMRSLRVQQVSTSRGMITDRSGRPLAVSVPVKAIWADPKEVHDAGGISVGDRWKALANALNIPLDQLSARINANPKGRFIYLARQVNPDMADYIKKLKLPGIHLREESRRYYPSGEVTAHLIGFTNVDSQGIEGVEKSFDKWLTGQPGERIVRKDRYGRVIEDISSTDSQAAHNLALSIDERLQALVYRELNNAVAFNKAESGSAVLVDVNTGEVLAMANSPSYNPNNLSGTPKEAMRNRTITDVFEPGSTVKPMVVMTALQRGVVRENSVLNTIPYRINGHEIKDVARYSELTLTGVLQKSSNVGVSKLALAMPSSALVDTYSRFGLGKATNLGLVGERSGLYPQKQRWSDIERATFSFGYGLMVTPLQLARVYATIGSYGIYRPLSITKVDPPVPGERVFPESIVRTVVHMMESVALPGGGGVKAAIKGYRIAIKTGTAKKVGPDGRYINKYIAYTAGVAPASQPRFALVVVINDPQAGKYYGGAVSAPVFGAIMGGVLRTMNIEPDALTTGDKNEFVINQGEGTGGRS [R23C], the “effect of a mutation on the interaction” value is reported as “decreasing interaction strength”.
